Results published in publication PMC3623905.
Values joined by “and” are separate entries in the source; they are usually repeats but may differ in a detail not shown here. Identical values can stand only once.

What was measured:
[1] = biological target: Insulin-degrading enzyme wild type (rat); experiment: SEC with static light scattering (SLS); 200 μg injected into a Superdex G-200 column, working buffer, 0.5 ml/min; 90° light scattering with UV or refractive index; calibrated with BSA
[2] = biological target: Proteolytically inactive recombinant insulin-degrading enzyme with Glu111 replaced by Gln (rat); experiment: as above

| stoichiometry N [1] | stoichiometry N [2] | Substance |
| --- | --- | --- |
| 4 and 2 |  | Insulin-degrading enzyme wild type |
|  | 2 and 4 | Proteolytically inactive recombinant insulin-degrading enzyme with Glu111 replaced by Gln |
